This is an account of results in publication PMC11272584 (Nature Metabolism, 2024).

Test [1] concerns GIPR variants (groups). Kind of test: β-arrestin 2 recruitment (BRET).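 As to all read-outs here: BRET readout of β-arrestin 2 recruitment in transiently transfected HEK293 cells expressing WT GIPR or a GIPR variant plus GPCR kinase 2, Rluc8 donor and citrine acceptor.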 The following applies: for In vitro groups (β-arrestin): arr part of the in vitro group; for Beta, Barr: in vitro β-arrestin recruitment per GIPR variant. (Arrestin recruitment assays detect the binding of arrestin to an activated receptor.)
Test [2] relates to GIPR variants (groups). The experiment in a line: cAMP accumulation. The class given is cell-based, human. Conditions: for In vitro groups (cAMP): cAMP part of the in vitro group; for percentage_camp: cAMP production compared with WT; for Beta, cAMP: in vitro cAMP production per GIPR variant. In general terms: Cyclic AMP is a second messenger, typically raised through Gs and lowered through Gi signalling.
Protocol: HEK293 (CRL-1573, American Type Culture Collection) and β-arrestin 1/2 knockout cells, generated from HEK293A[48], were used for cAMP measurement, homologues competition binding and β-arrestin 2 recruitment. For the internalization assay, endosomal signalling and basal receptor localization experiments, HEK293A (R70507, Thermo Fisher) cells were used. Both cell lines were cultured at 5% CO2 at 37 °C in Roswell Park Memorial Institute GlutaMAX-I supplemented with 10% fetal bovine serum, 180 units ml^−1 penicillin, and 45 g ml^−1 streptomycin. For the cAMP and binding experiments, cells were transfected with the calcium phosphate precipitation method[49]. The polyethyleneimine (PEI) transfection method was used for the β-arrestin 2 recruitment assays[50], endosomal signalling and basal receptor localization assays, while the lipofectamine transfection method was used for the internalization assay.
cAMP production was measured with the DiscoverX Hithunter cAMP assay according to the manufacturer’s protocol (DiscoverX). […] On the day of the assay, the cells were washed twice with HEPES-buffered saline (HBS) and incubated with HBS and 1 mM 3-isobutyl-1-methylxanthine for 30 min at 37 °C. […] After the incubation, the assay medium was removed from the plate and the cells were washed with 30 µl PBS and treated with 40 µl enzyme donor–lysis buffer–chemiluminescent reagents and 10 µl cAMP antibodies for 60 min before 40 µl enzyme acceptor solution added. After a 3-h incubation on a shaking table in the dark, the cAMP accumulation was measured based on luminescence with a Perkin Elmer EnVision 2104 Multilabel Microplate Reader.
For cAMP accumulation, the data were fitted as a sigmoidal curve with a Hill slope of 1; for homologous competition binding, the data were fitted as a sigmoidal curve with a Hill slope of −1.

The target in a further test is T1, GIPR R336P (Homo sapiens, UniProt P48546, R336P).
T1 construct: host or cells: HEK293
T1 sequence (P48546 22-466 R336P): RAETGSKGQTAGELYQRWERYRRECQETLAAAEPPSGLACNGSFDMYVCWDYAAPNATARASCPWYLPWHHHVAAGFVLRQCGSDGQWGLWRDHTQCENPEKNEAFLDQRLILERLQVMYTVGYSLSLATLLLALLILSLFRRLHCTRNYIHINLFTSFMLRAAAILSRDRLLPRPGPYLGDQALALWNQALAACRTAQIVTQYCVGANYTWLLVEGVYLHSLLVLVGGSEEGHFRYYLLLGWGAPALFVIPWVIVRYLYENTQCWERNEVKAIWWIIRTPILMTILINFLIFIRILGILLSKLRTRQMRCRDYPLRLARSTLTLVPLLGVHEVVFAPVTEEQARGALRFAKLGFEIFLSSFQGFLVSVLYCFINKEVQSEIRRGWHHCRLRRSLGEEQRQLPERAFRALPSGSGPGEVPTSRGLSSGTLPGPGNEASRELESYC
Kind of test: cAMP accumulation. The test is classed as cell-based.

In a further test the target is T2, GIPR S382T (Homo sapiens, UniProt P48546, S382T).
T2 construct: host or cells: HEK293
T2 sequence (P48546 22-466 S382T): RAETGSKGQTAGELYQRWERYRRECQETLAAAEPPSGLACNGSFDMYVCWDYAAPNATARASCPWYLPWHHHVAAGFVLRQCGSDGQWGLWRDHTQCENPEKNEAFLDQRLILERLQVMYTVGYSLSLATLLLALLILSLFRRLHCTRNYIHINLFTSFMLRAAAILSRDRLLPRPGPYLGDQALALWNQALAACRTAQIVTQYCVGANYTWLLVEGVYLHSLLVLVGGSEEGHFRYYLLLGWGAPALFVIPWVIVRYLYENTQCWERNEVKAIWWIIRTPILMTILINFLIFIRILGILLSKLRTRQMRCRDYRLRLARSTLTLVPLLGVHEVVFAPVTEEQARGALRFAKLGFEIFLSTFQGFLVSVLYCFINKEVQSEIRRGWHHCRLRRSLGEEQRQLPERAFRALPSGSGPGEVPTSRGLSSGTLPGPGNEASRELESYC
Kind of test: cAMP accumulation. The class given is cell-based.

In a further test the target is T3, GIPR I378M (Homo sapiens, UniProt P48546, I378M).
T3 construct: host or cells: HEK293
T3 sequence (P48546 22-466 I378M): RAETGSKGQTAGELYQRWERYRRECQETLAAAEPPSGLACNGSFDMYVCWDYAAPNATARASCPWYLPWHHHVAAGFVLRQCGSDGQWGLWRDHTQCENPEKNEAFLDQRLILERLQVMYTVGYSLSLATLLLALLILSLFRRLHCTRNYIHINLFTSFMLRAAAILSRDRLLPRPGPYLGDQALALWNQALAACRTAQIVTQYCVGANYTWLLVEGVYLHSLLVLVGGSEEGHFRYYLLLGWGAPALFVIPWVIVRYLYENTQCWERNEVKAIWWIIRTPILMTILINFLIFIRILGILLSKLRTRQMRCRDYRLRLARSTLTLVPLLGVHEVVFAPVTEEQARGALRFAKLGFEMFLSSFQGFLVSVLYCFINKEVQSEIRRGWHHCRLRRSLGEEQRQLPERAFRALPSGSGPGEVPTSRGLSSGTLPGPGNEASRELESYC
Kind of test: cAMP accumulation. The test is classed as cell-based.

Another test deals with T4, GIPR E354Q (Homo sapiens, UniProt P48546, E354Q).
T4 construct: host or cells: HEK293
T4 sequence (P48546 22-466 E354Q): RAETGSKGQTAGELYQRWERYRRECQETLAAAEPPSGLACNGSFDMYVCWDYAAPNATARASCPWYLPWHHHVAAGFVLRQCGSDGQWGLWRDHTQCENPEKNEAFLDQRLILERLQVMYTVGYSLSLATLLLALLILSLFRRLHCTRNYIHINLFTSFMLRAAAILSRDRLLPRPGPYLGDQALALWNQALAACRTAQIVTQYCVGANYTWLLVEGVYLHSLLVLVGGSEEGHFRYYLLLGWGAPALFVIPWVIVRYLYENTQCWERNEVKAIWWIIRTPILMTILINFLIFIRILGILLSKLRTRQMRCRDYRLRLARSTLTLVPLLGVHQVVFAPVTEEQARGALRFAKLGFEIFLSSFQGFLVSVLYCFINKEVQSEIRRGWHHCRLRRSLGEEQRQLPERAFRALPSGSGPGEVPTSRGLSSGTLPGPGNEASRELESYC
The experiment in a line: cAMP accumulation. The test is classed as cell-based.

In a further test the target is T5, GIPR S382Y (Homo sapiens, UniProt P48546, S382Y).
T5 construct: host or cells: HEK293
T5 sequence (P48546 22-466 S382Y): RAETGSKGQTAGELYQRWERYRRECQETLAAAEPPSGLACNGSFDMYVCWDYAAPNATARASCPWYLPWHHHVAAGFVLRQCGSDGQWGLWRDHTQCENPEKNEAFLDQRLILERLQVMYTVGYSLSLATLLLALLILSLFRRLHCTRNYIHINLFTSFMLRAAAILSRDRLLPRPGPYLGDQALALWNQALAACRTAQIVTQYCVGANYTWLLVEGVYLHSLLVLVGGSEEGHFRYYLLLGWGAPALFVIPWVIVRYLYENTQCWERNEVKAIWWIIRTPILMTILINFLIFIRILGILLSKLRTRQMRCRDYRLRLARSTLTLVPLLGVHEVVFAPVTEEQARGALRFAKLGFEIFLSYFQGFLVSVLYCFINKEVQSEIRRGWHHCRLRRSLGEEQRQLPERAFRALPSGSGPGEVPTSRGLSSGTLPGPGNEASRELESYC
Kind of test: cAMP accumulation. The test is classed as cell-based.

Protocol for GIPR E354Q: (§1) HEK293 (CRL-1573, American Type Culture Collection) and β-arrestin 1/2 knockout cells, generated from HEK293A[48], were used for cAMP measurement, homologues competition binding and β-arrestin 2 recruitment. […] Both cell lines were cultured at 5% CO2 at 37 °C in Roswell Park Memorial Institute GlutaMAX-I supplemented with 10% fetal bovine serum, 180 units ml^−1 penicillin, and 45 g ml^−1 streptomycin. For the cAMP and binding experiments, cells were transfected with the calcium phosphate precipitation method[49].
(§2) cAMP production was measured with the DiscoverX Hithunter cAMP assay according to the manufacturer’s protocol (DiscoverX). […] On the day of the assay, the cells were washed twice with HEPES-buffered saline (HBS) and incubated with HBS and 1 mM 3-isobutyl-1-methylxanthine for 30 min at 37 °C. […] After the incubation, the assay medium was removed from the plate and the cells were washed with 30 µl PBS and treated with 40 µl enzyme donor–lysis buffer–chemiluminescent reagents and 10 µl cAMP antibodies for 60 min before 40 µl enzyme acceptor solution added. After a 3-h incubation on a shaking table in the dark, the cAMP accumulation was measured based on luminescence with a Perkin Elmer EnVision 2104 Multilabel Microplate Reader. […]
Protocol for GIPR I378M: as §1, §2
Protocol for GIPR R336P: as §1, §2
Protocol for GIPR S382T: as §1, §2
Protocol for GIPR S382Y: HEK293 (CRL-1573, American Type Culture Collection) and β-arrestin 1/2 knockout cells, generated from HEK293A[48], were used for cAMP measurement, homologues competition binding and β-arrestin 2 recruitment. […] Both cell lines were cultured at 5% CO2 at 37 °C in Roswell Park Memorial Institute GlutaMAX-I supplemented with 10% fetal bovine serum, 180 units ml^−1 penicillin, and 45 g ml^−1 streptomycin. For the cAMP and binding experiments, cells were transfected with the calcium phosphate precipitation method[49]. The polyethyleneimine (PEI) transfection method was used for the β-arrestin 2 recruitment assays[50], endosomal signalling and basal receptor localization assays, while the lipofectamine transfection method was used for the internalization assay.
cAMP production was measured with the DiscoverX Hithunter cAMP assay according to the manufacturer’s protocol (DiscoverX). […] On the day of the assay, the cells were washed twice with HEPES-buffered saline (HBS) and incubated with HBS and 1 mM 3-isobutyl-1-methylxanthine for 30 min at 37 °C. […] After a 3-h incubation on a shaking table in the dark, the cAMP accumulation was measured based on luminescence with a Perkin Elmer EnVision 2104 Multilabel Microplate Reader. […]

B1: R336P (protein)
chain: RAETGSKGQTAGELYQRWERYRRECQETLAAAEPPSGLACNGSFDMYVCWDYAAPNATARASCPWYLPWHHHVAAGFVLRQCGSDGQWGLWRDHTQCENPEKNEAFLDQRLILERLQVMYTVGYSLSLATLLLALLILSLFRRLHCTRNYIHINLFTSFMLRAAAILSRDRLLPRPGPYLGDQALALWNQALAACRTAQIVTQYCVGANYTWLLVEGVYLHSLLVLVGGSEEGHFRYYLLLGWGAPALFVIPWVIVRYLYENTQCWERNEVKAIWWIIRTPILMTILINFLIFIRILGILLSKLRTRQMRCRDYPLRLARSTLTLVPLLGVHEVVFAPVTEEQARGALRFAKLGFEIFLSSFQGFLVSVLYCFINKEVQSEIRRGWHHCRLRRSLGEEQRQLPERAFRALPSGSGPGEVPTSRGLSSGTLPGPGNEASRELESYC
Regarding B1, in the test with GIPR variants (groups) [1], the “In vitro groups (β-arrestin)” value was “LoF_arr” and the “Beta, Barr” value is given as 0.2102. Moreover, in the test with GIPR variants (groups) [2], the “In vitro groups (cAMP)” value is recorded as “LoF_camp”; the percentage_camp is listed as below 50% cAMP; the “Beta, cAMP” value turned out to be 0.3193. Further, the “Efficacy at 100pmol (cAMP)” value in the test with GIPR R336P was 0.3193.

B2: S382T (protein)
chain: RAETGSKGQTAGELYQRWERYRRECQETLAAAEPPSGLACNGSFDMYVCWDYAAPNATARASCPWYLPWHHHVAAGFVLRQCGSDGQWGLWRDHTQCENPEKNEAFLDQRLILERLQVMYTVGYSLSLATLLLALLILSLFRRLHCTRNYIHINLFTSFMLRAAAILSRDRLLPRPGPYLGDQALALWNQALAACRTAQIVTQYCVGANYTWLLVEGVYLHSLLVLVGGSEEGHFRYYLLLGWGAPALFVIPWVIVRYLYENTQCWERNEVKAIWWIIRTPILMTILINFLIFIRILGILLSKLRTRQMRCRDYRLRLARSTLTLVPLLGVHEVVFAPVTEEQARGALRFAKLGFEIFLSTFQGFLVSVLYCFINKEVQSEIRRGWHHCRLRRSLGEEQRQLPERAFRALPSGSGPGEVPTSRGLSSGTLPGPGNEASRELESYC
As to B2, in the test on GIPR variants (groups) [1], the “In vitro groups (β-arrestin)” value is “LoF_arr” and the “Beta, Barr” value is 0.05782. Moreover, in the test with GIPR variants (groups) [2], the “In vitro groups (cAMP)” value was “LoF_camp”; the percentage_camp was below 50% cAMP; the “Beta, cAMP” value stood at 0.1068. In the test with GIPR S382T, the “Efficacy at 100pmol (cAMP)” value came to 0.1068.

B3: I378M (protein)
chain: RAETGSKGQTAGELYQRWERYRRECQETLAAAEPPSGLACNGSFDMYVCWDYAAPNATARASCPWYLPWHHHVAAGFVLRQCGSDGQWGLWRDHTQCENPEKNEAFLDQRLILERLQVMYTVGYSLSLATLLLALLILSLFRRLHCTRNYIHINLFTSFMLRAAAILSRDRLLPRPGPYLGDQALALWNQALAACRTAQIVTQYCVGANYTWLLVEGVYLHSLLVLVGGSEEGHFRYYLLLGWGAPALFVIPWVIVRYLYENTQCWERNEVKAIWWIIRTPILMTILINFLIFIRILGILLSKLRTRQMRCRDYRLRLARSTLTLVPLLGVHEVVFAPVTEEQARGALRFAKLGFEMFLSSFQGFLVSVLYCFINKEVQSEIRRGWHHCRLRRSLGEEQRQLPERAFRALPSGSGPGEVPTSRGLSSGTLPGPGNEASRELESYC
For B3, in the test with GIPR variants (groups) [1], the “In vitro groups (β-arrestin)” value was “GoF_arr” and the “Beta, Barr” value is 1.357. Further, in the test with GIPR variants (groups) [2], the “In vitro groups (cAMP)” value is recorded as “WT-like_camp”; the percentage_camp was above 50% cAMP; the “Beta, cAMP” value came out at 0.8167. The “Efficacy at 100pmol (cAMP)” value with GIPR I378M worked out at 0.8167.

B4: E354Q (protein)
chain: RAETGSKGQTAGELYQRWERYRRECQETLAAAEPPSGLACNGSFDMYVCWDYAAPNATARASCPWYLPWHHHVAAGFVLRQCGSDGQWGLWRDHTQCENPEKNEAFLDQRLILERLQVMYTVGYSLSLATLLLALLILSLFRRLHCTRNYIHINLFTSFMLRAAAILSRDRLLPRPGPYLGDQALALWNQALAACRTAQIVTQYCVGANYTWLLVEGVYLHSLLVLVGGSEEGHFRYYLLLGWGAPALFVIPWVIVRYLYENTQCWERNEVKAIWWIIRTPILMTILINFLIFIRILGILLSKLRTRQMRCRDYRLRLARSTLTLVPLLGVHQVVFAPVTEEQARGALRFAKLGFEIFLSSFQGFLVSVLYCFINKEVQSEIRRGWHHCRLRRSLGEEQRQLPERAFRALPSGSGPGEVPTSRGLSSGTLPGPGNEASRELESYC
For B4, the “Efficacy at 100pmol (cAMP)” value with GIPR E354Q was found to be 1.125. Moreover, in the test on GIPR variants (groups) [1], the “In vitro groups (β-arrestin)” value is “WT-like_arr” and the “Beta, Barr” value amounted to 0.9822. In the test on GIPR variants (groups) [2], the “In vitro groups (cAMP)” value is given as “WT-like_camp”; the percentage_camp is above 50% cAMP; the “Beta, cAMP” value amounted to 1.125.

B5: S382Y (protein)
chain: RAETGSKGQTAGELYQRWERYRRECQETLAAAEPPSGLACNGSFDMYVCWDYAAPNATARASCPWYLPWHHHVAAGFVLRQCGSDGQWGLWRDHTQCENPEKNEAFLDQRLILERLQVMYTVGYSLSLATLLLALLILSLFRRLHCTRNYIHINLFTSFMLRAAAILSRDRLLPRPGPYLGDQALALWNQALAACRTAQIVTQYCVGANYTWLLVEGVYLHSLLVLVGGSEEGHFRYYLLLGWGAPALFVIPWVIVRYLYENTQCWERNEVKAIWWIIRTPILMTILINFLIFIRILGILLSKLRTRQMRCRDYRLRLARSTLTLVPLLGVHEVVFAPVTEEQARGALRFAKLGFEIFLSYFQGFLVSVLYCFINKEVQSEIRRGWHHCRLRRSLGEEQRQLPERAFRALPSGSGPGEVPTSRGLSSGTLPGPGNEASRELESYC
As for B5, in the test with GIPR variants (groups) [1], the “In vitro groups (β-arrestin)” value is “LoF_arr” and the “Beta, Barr” value came to 0. In addition, in the test with GIPR variants (groups) [2], the “In vitro groups (cAMP)” value is given as “LoF_camp”; the percentage_camp is recorded as below 50% cAMP; the “Beta, cAMP” value is listed as 0.008271. Also, the “Efficacy at 100pmol (cAMP)” value with GIPR S382Y is given as 0.008271.
